Key:
[1] = tested on: bovine serum albumin (BSA), β-Galactosidase (β-Gal), rabbit serum immunoglobulin (IgG), and bovine trypsin; experiment: Dispersion efficiency of four model proteins in PFOc (Example 4); type: physicochemical; conditions: PD:protein molar ratio 1000:1
Method: These compounds were screened to evaluate their ability to disperse four model proteins, bovine serum albumin (BSA), β-Galactosidase (β-Gal), rabbit serum immunoglobulin (IgG), and bovine trypsin into the PFOc solvent. […] […] The samples were then briefly vortexed/sonicated then constantly mixed overnight to ensure proper fluorine dispersion. After that, samples were centrifuged at 1950 g for 5 minutes to remove non-dispersed portion, and 100 μL supernatant of dispersed protein sample was transferred into each well of 96-well plate. PFHx solvent was let evaporate at 37 °C for two hours. The remaining protein residue was redissolved in […] PBS, and an equal volume of Coomassie solution was added to the sample. In addition, protein prepared in PBS and PFHx (without PFNA) were also identically processed and included as positive and negative control. Lastly, the amount of protein was quantified by taking absorbance of converted Coomassie solution at 595 nm. Dispersion efficiency was calculated as follows:

[2] = tested on: cells; experiment: Cellular uptake of PFNA-complexed proteins; type: cell-based
From the text: Multiplexed in vitro assays were employed to probe the influence of PFNA interactions on protein uptake and transport in cells. A549 and PC9 human lung cells were prioritized for these assays given that pulmonary tissue is a primary site of perfluoroalkyl bioaccumulation in humans (Reference: 63). Before initiating experiments, cellular toxicity assays established a maximum tolerated dose of PFNA to avoid confounding protein transport experiments with substantive cell death. Protein uptake was then studied using green fluorescent protein (GFP) and bovine serum albumin (BSACy5) as model biologics that employ non-specific pinocytic mechanisms for cellular entry.

[3] = tested on: proteinase K; experiment: β-Gal activity after proteinase K exposure; type: physicochemical; conditions: 24 hours
From the text: FIGS. 54A-54C depict the relative activity of the β-Gal protein dispersed in PBS or PFOc solvents without and with contamination by (FIG. 54A) proteinase K, (FIG. 54B) bleach or (FIG. 54C) hydrochloric acid. Data shown as average±s.d. of n=3 technical replicates. Statistical significance between conditions is indicated by a line using unpaired Student's t-test with n.s.=not significant, * p<0.05, ** p<0.01, and *** p<0.001.
An equal volumetric amount of β-Gal and proteinase K stocks were mixed and incubated together for 24 hours. The remaining active β-Gal was evaluated by adding ONPG substrate diluted in PBS at 4 mg/mL directly to the samples. This action eluted β-Gal from PFOc solvent and immediately starting ONPG conversion without further β-Gal disruption from residue proteinase K that was also eluted into aqueous buffer. The enzymatic activity was calculated from measuring absorbance (420 nm) after 15-minute conversion. […] A likely explanation for this is that the proteinase K protein is also coated by the PD-7 additive after addition to the PFOc solvent, leading to its segregation from the co-dispersed β-Gal protein.

[4] = Pharmacokinetics of β-Gal in C57BL/6J mice (Example 3); type: in vivo; conditions: i.v. tail vein
Method: Two groups (n=5) of C57BL/6J mice received […] of 10 μM solutions of β-Gal that was either 1) prepared in sterile PBS or 2) dissolved in PFOc (1 mM PFNA) and extracted into sterile PBS. Due to the large solution volumes given (150 μL, ~15% of mouse blood volume), PFOc dispersed proteins were extracted into sterile saline before injection to avoid hyponatremia. Samples were administered by tail vein injection.
At a series of time points, mice were sacrificed, and blood samples collected via cardiac puncture. Bioactivity and bioavailability of β-Gal was determined by conversion of the fluorescent substrate, 4-Methylumbelliferyl-[…] (β-GAL). Whole blood collected in a serum tube was centrifuged at 2000 rcf for 4 minutes to extract serum containing β-Gal protein. 20 μL of the serum was then mixed with 180 μL μ-GAL (for a final substrate concentration of 1 μM). Samples were quickly pipette mixed and incubated in the dark at room temperature for 5 minutes. Fluorescent intensity was measured with λex=360 nm and λem=440 nm. The background fluorescent intensity from serum was determined from serum dilution in PBS without μ-GAL substrate.

[5] = Thermal stability of proteins in PFNA/PFOc (bioactivity after heating); type: physicochemical; conditions: PFNA/PFOc mixture compared to aqueous solution, 30 min heating
Method: FIGS. 16A-16C depict that the thermal stability of β-gal, GFP, and Trypsin is enhanced when the proteins are dissolved in a PFNA/PFOc mixture, compared to aqueous solutions of the proteins.
PFNA enhanced thermal stability in PFOc Differential scanning calorimetry (DSC) measurements were performed on 5 test proteins dissolved in either PBS (Aq.) or Perfluorooctane (PFOc). PFNA dispersant was added only for the PFOc conditions. DSC was performed at 2 °C/min ramp from 40 °C-100 °C. Melting temperature (Tm) was determined based on positive inflection of heat capacity curve, indicating protein unfolding (FIG. 15). Change in melting temperature (ATm (°C)) represented the difference in Tm between aqueous (Aq.) and PFOc data. Tm for GFP in PFOc could not be achieved at the maximum temperature of 100 °C for the DSC experiments. Each protein was dissolved in PBS (Aq.) or PFNA/PFOc mixture. Dissolved proteins were heated to 75 °C (β-gal), 90 °C (GFP) or 80 °C (Trypsin); treatment temperatures were determined based on aqueous melting temperatures for each protein. Positive controls were maintained at room temperature (25 °C). […] Bioactivity was evaluated then via fluorescence measurements for GFP, or using colorimetric substrate conversion assays (ONPG for β-gal, BAEE for Trypsin). […]

Compound | dispersion efficiency [1] [%] | cellular uptake of complexed proteins [2] | β-Gal activity in presence of proteinase K ([3]; PFOc formulation) | β-Gal activity in presence of proteinase K ([3]; dissolved in PBS) | serum half-life t1/2 ([4]; native β-Gal administered in saline) [min] | serum half-life t1/2 ([4]; β-Gal delivered from PFOc dispersion (1 mM PFNA), extracted into saline) [min] | thermal stability [5]
O=C(O)C(F)(F)C(F)(F)C(F)(F)C(F)(F)C(F)(F)C(F)(F)C(F)(F)C(F)(F)F [Compound 7, perfluoronanonic acid] | ≤ 50 | significantly enhanced |  |  |  |  | 
β-Gal: β-Galactosidase (β-Gal), dissolved in PBS/saline or dispersed in PFOc |  |  | no statistically significant change in activity | completely inactivated | 6.6 | 7.9 | enhanced
